# According to patent US20260176336A1 (MESTAG THERAPEUTICS, published 2026):
# Read-outs that look alike come from different tables or passages of the source.
# Key:
# [1] = target: T1, human LTBR endogenously expressed on cells (HepG2, A549, A375, HCC1187, RPMI-7951, primary human breast CAFs) (human, UniProt P36941 31-435); experiment: flow cytometry, A549 cells
# T1 construct: also called lymphotoxin beta receptor; TNFRSF3
# Method in brief: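 Cells (5×10⁴/well) incubated 1 h at 4 °C with 1:3, 11-point dilutions of constructs in FACS buffer (1% BSA, 0.1% sodium azide, PBS), then washed and read by flow cytometry. EC50 derived from binding curves.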
# [2] = target: T1, human LTBR endogenously expressed on …; experiment: flow cytometry, inhibition of PE-LIGHT (24 nM final) binding to A549 cells; competitor LIGHT; partial inhibition
# Description: (§1) The ability of VHH-Fc fusion proteins to bind to endogenously expressed LTBR on the A549 tumor cell and to inhibit human LIGHT (Acro, cat. no LIT-H5242) binding to A549 cells was assessed. BHA10 was employed in the assay as a positive control. Recombinant human LIGHT was labelled with PE fluorochrome, using PE/R-Phycoerythrin Conjugation Kit—Lightning-Link® (Abcam, cat no ab102918), following the manufacturer's instructions. 1×10⁶ cells were resuspended in the FACS buffer (1% BSA, 0.1% Sodium Azide in PBS), and 50 ul was added to each well ([…]) of a 96-U bottom plate. The cells were washed and resuspended in 25 ul of antibody dilution (2× final concentration) followed by 0.5 h incubation at 4° C., 25 ul of PE labelled LIGHT at 48 nM (2× final concentration) in FACS buffer was subsequently added to the cells and additionally incubated for 1 h at 4° C. […] Next, cells were extensively washed and fixed with Paraformaldehyde Solution, 4% in PBS (Thermo Scientific, cat no J19943.K2) for 20 mins, following the manufacturer's instructions. The cells were then washed, resuspended in PBS, and read on Beckman Coulter CytoFLEX. The data were analysed using FloJo V10 and GraphPad Prism v9. The IC50 and EC50 values can be found in.
# [3] = target: T1, human LTBR endogenously expressed on …; experiment: cell-based or functional assay
# [4] = target: T1, human LTBR endogenously expressed on …; experiment: cell-based or functional assay; remark: listed apart in the source
# [5] = target: T1, human LTBR endogenously expressed on …; experiment: flow cytometry, A549 cells; remark: listed apart in the source
# Description: as §1
# [6] = target: T1, human LTBR endogenously expressed on …; experiment: cell-based or functional assay; remark: listed apart in the source
binder,measurement,setting,value
"BHA10 (antibody, V domains shown, as disclosed in WO2004002431; also called BHA10 (anti-LTBR); monospecific anti-LTBR agonist) VH: QVQLVQSGAEVKKPGSSVKVSCKASGYTFTTYYLHWVRQAPGQGLEWMGWIYPGNVHAQYNEKFKGRVTITADKSTSTAYMELSSLRSEDTAVYYCARSWEGFPYWGQGTTVTVSS VL: DIQMTQSPSSLSASVGDRVTITCKASQNVGINVAWYQQKPGKAPKSLISSASYRYSGVPSRFSGSGSGTDFTLTISSLQPEDFATYFCQQYDTYPFTFGQGTKVEIK",EC50,[1],0.055 nM
same,IC50,[2],0.67 nM
same,HepG2 Reporter assay (NFKB activation-induced luciferase activity) EC50,[3],0.012 nM
same,HepG2 reporter assay EC50 (w/o cross-linking antibody),[4],0.052 nM
same,HepG2 reporter assay EC50 (with cross-linking antibody),[4],0.029 nM
same,EC50,[5],0.78 nM
same,HCC1187 chemokine induction assay (CCL19) EC50,[6],0.53 nM
